Positions count from the first letter of the chain named.

Sequences and labels used below:
B1: AS48542bbz CAR (other)
chain: QMQLVESGGGSVQAGETLRLSCTTSAFTFDGPDMAWYRQAPGNECVLVSIISADGRTYYADSVKGRFTISRDNAKNTVFLNLNSLQPEDTAVYYCALDPRKNCRGGYCCANWGPGTQVTVSSTTTPAPRPPTPAPTIASQPLSLRPEACRPAAGGAVHTRGLDFACDIYIWAPLAGTCGVLLLSLVITLYCKRGRKKLLYIFKQPFMRPVQTTQEEDGCSCRFPEEEEGGCELRVKFSRSADAPAYKQGQNQLYNELNLGRREEYDVLDKRRGRDPEMGGKPRRKNPQEGLYNELQKDKMAEAYSEIGMKGERRRGKGHDGLYQGLSTATKDTYDALHMQALPPR
B2: AS48542dis-bbz CAR (other)
chain: QMQLVESGGGSVQAGETLRLSCTTSAFTFDGPDMAWYRQAPGNECVLVSIISADGRTYYADSVKGRFTISRDNAKNTVFLNLNSLQPEDTAVYYCALDPRKNCRGGYCCANWGPGTQVTVSSGGGGSQMQLVESGGGSVQAGETLRLSCTTSAFTFDGPDMAWYRQAPGNECVLVSIISADGRTYYADSVKGRFTISRDNAKNTVFLNLNSLQPEDTAVYYCALDPRKNCRGGYCCANWGPGTQVTVSSTTTPAPRPPTPAPTIASQPLSLRPEACRPAAGGAVHTRGLDFACDIYIWAPLAGTCGVLLLSLVITLYCKRGRKKLLYIFKQPFMRPVQTTQEEDGCSCRFPEEEEGGCELRVKFSRSADAPAYKQGQNQLYNELNLGRREEYDVLDKRRGRDPEMGGKPRRKNPQEGLYNELQKDKMAEAYSEIGMKGERRRGKGHDGLYQGLSTATKDTYDALHMQALPPR
B3: AS53574-AS48542bil-bbz CAR (other)
chain: QVKLVESGGGSVQAGGSLRLSCAASGYIYSSNCMGWFRQAPGKEREWVARIHTGSGSTYYADSVKGRFTISQDNAKNTVYLQMNSLRPEDTAMYDCAAGRVVLGAVVCTNEYWGQGTQVTVSSGGGGSGGGGSGGGGSQMQLVESGGGSVQAGETLRLSCTTSAFTFDGPDMAWYRQAPGNECVLVSIISADGRTYYADSVKGRFTISRDNAKNTVFLNLNSLQPEDTAVYYCALDPRKNCRGGYCCANWGPGTQVTVSSTTTPAPRPPTPAPTIASQPLSLRPEACRPAAGGAVHTRGLDFACDIYIWAPLAGTCGVLLLSLVITLYCKRGRKKLLYIFKQPFMRPVQTTQEEDGCSCRFPEEEEGGCELRVKFSRSADAPAYKQGQNQLYNELNLGRREEYDVLDKRRGRDPEMGGKPRRKNPQEGLYNELQKDKMAEAYSEIGMKGERRRGKGHDGLYQGLSTATKDTYDALHMQALPPR
B4: AS48542dil-bbz CAR (other)
chain: QMQLVESGGGSVQAGETLRLSCTTSAFTFDGPDMAWYRQAPGNECVLVSIISADGRTYYADSVKGRFTISRDNAKNTVFLNLNSLQPEDTAVYYCALDPRKNCRGGYCCANWGPGTQVTVSSGGGGSGGGGSGGGGSQMQLVESGGGSVQAGETLRLSCTTSAFTFDGPDMAWYRQAPGNECVLVSIISADGRTYYADSVKGRFTISRDNAKNTVFLNLNSLQPEDTAVYYCALDPRKNCRGGYCCANWGPGTQVTVSSTTTPAPRPPTPAPTIASQPLSLRPEACRPAAGGAVHTRGLDFACDIYIWAPLAGTCGVLLLSLVITLYCKRGRKKLLYIFKQPFMRPVQTTQEEDGCSCRFPEEEEGGCELRVKFSRSADAPAYKQGQNQLYNELNLGRREEYDVLDKRRGRDPEMGGKPRRKNPQEGLYNELQKDKMAEAYSEIGMKGERRRGKGHDGLYQGLSTATKDTYDALHMQALPPR
B5: AS47863 sdAb (VHH)
VHH: QVQLEESGGGSVQAGETLRLSCTASGSTFGDSDMGWYRQAPGNACELVSIISSDGRTYYVDSVKGRFTISQDNAVSTVYLQMNSLKPEDTGVYYCAADLRQYCRDGRCCGYWGQGTQVTVSS
notes: Camel sdAb
B6: AS48433 sdAb (VHH)
VHH: B5 VHH with V2I, E5V, K86N, Q101L, Y102N
notes: Camel sdAb
B7: AS48542 sdAb (VHH)
VHH: QMQLVESGGGSVQAGETLRLSCTTSAFTFDGPDMAWYRQAPGNECVLVSIISADGRTYYADSVKGRFTISRDNAKNTVFLNLNSLQPEDTAVYYCALDPRKNCRGGYCCANWGPGTQVTVSS
notes: Camel sdAb
B8: AS48463 sdAb (VHH)
VHH: QVHLMESGGGSVQAGETLRLSCTASGFTFANSDMGWYRQAPGNACELVSIISSHGGTTYYVDSVKGRFTISRHNAENTVYLRMTSLKPEDTALYYCVADPRSNCRGGYCCGYWGPGTQVTVSS
notes: Camel sdAb
B9: AS48508 sdAb (VHH)
VHH: EVQLVESGGGSVQAGGSLRLSCTASRFTFDGPDMAWYRQAPGNACELVSIISADGRTYYTDSVKGRFTISRDNAKNTVFLYLNSLQPEDTAVYYCAPDPRRNCRGGYCCGNWGPGTQVTVSS
notes: Camel sdAb
B10: AS53750 sdAb (VHH)
VHH: B9 VHH with S11L, A14P, R26G, F29D, Q39R, A44E, Y107D
notes: Camel sdAb

The first test addresses T1, CD30 on CD30-expressing tumor cell lines (HH, MJ, H9) (UniProt P28908 19-595).
T1 sequence (looked up): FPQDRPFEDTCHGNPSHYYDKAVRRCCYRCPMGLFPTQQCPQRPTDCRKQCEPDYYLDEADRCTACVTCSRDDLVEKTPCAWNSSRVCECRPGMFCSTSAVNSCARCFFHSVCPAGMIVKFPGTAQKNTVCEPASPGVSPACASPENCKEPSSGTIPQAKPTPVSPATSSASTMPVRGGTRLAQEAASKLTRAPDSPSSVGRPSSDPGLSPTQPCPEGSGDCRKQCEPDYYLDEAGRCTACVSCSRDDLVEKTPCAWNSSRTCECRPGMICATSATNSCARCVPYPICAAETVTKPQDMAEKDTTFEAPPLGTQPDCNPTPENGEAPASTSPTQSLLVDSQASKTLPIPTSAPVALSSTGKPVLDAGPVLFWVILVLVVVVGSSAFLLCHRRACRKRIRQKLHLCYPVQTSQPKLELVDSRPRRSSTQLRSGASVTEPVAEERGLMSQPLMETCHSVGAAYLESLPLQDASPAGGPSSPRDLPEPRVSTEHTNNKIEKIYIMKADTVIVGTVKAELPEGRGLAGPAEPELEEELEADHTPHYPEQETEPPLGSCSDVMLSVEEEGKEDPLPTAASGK
Briefly: cell-based or functional assay.
Take B1: the “% H9 cell lysis E:T = 2:1 (LDH assay, CAR T cells)” value stood at 50% and the “% MJ cell lysis E:T = 1:1 (LDH assay, CAR T cells)” value was determined as 55%.

The target in another test is T1, CD30 on CD30-expressing tumor cell …. The test is described as follows: cell-based or functional assay. The source holds these as a separate data set.
B1: the “% H9 cell lysis E:T = 5:1 (LDH assay, CAR T cells)” value was determined as 64% and the “% MJ cell lysis E:T = 1:1 (LDH assay, CAR T cells)” value was found to be 58.5%.

With B2, the “% H9 cell lysis E:T = 5:1 (LDH assay, CAR T cells)” value came out at 81% and the “% MJ cell lysis E:T = 1:1 (LDH assay, CAR T cells)” value came out at 56.4%.

As to B3, the “% H9 cell lysis E:T = 5:1 (LDH assay, CAR T cells)” value came to 54% and the “% MJ cell lysis E:T = 1:1 (LDH assay, CAR T cells)” value stood at 60.5%.

Take B4: the “% H9 cell lysis E:T = 5:1 (LDH assay, CAR T cells)” value worked out at 84% and the “% MJ cell lysis E:T = 1:1 (LDH assay, CAR T cells)” value stood at 64.3%.

In the next test the target is T2, recombinant human CD30 extra cellular domain (ECD) protein (human, UniProt P28908 19-379).
T2 construct: Bought from R&D systems; also called rhCD30; human CD30 ECD
T2 sequence: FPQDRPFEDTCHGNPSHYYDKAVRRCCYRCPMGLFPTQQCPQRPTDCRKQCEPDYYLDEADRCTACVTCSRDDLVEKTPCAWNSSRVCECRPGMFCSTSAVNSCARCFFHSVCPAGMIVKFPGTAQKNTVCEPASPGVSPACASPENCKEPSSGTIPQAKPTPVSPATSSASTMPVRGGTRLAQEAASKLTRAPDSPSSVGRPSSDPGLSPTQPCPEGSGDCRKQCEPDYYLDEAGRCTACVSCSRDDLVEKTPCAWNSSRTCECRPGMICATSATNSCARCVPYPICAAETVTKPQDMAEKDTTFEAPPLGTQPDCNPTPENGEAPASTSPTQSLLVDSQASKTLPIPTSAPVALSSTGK
Briefly: SPR Biacore T200, His-tagged sdAb/Fab captured, 100.0 nM human CD30 as analyte, single curve. As to the method:
Some of these unique binders were subjected to for further characterization by surface plasmon resonance (SPR) on a BIAcore T200 instrument (GE Healthcare). The experiment was carried out as follows. The crude sdAb/Fab proteins were captured through an affinity tag (6×Histidine tag) onto the sensorchip. High-concentration (100.0 nM) of human CD30 (R&D systems, Cat. #6126-CD) flowed over the sensorchip surface, and were allowed to bind the antibody fragments for 300 s followed by injection of the running buffer to allow dissociation of the complex. On-rate ([…] and off-rate (kd) were roughly calculated based on one association and dissociation curve, and were used to estimate the equilibrium dissociation constant (KD). 5F11 scFv (SEQ ID NO:216, prepared according to WO2017066122) was used as a positive control. Data were summarized in Table 3 below. The first 10 antibodies in Table 3 were sdAbs with amino acid sequence ID numbers summarized in Table 1, the last antibody was 5F11 scFv, and the remainings were human Fabs with CDR and scFv amino acid sequence ID numbers in Table 2.
Background: In SPR one partner is held on a chip, and binding of the other changes the refractive index at the surface.
Turning to B5, the equilibrium dissociation constant (Kd) turned out to be 29 nM, the dissociation rate constant (koff) turned out to be 0.0042 s⁻¹, the association rate constant (kon) amounted to 140000 M⁻¹ s⁻¹ and the “rhCD30 Binding (RU)” value was 119 RU.

For the molecule B6, the equilibrium dissociation constant (Kd) stood at 25 nM, the koff stood at 0.0023 s⁻¹, the kon came out at 93000 M⁻¹ s⁻¹ and the “rhCD30 Binding (RU)” value turned out to be 83.5 RU.

With B7, the Kd came out at 19 nM, the koff came out at 0.0024 s⁻¹, the on-rate (kon) came to 120000 M⁻¹ s⁻¹ and the “rhCD30 Binding (RU)” value came out at 60.8 RU.

B8: the dissociation constant (Kd) came to 30 nM, the koff came out at 0.01 s⁻¹, the on-rate constant (kon) stood at 340000 M⁻¹ s⁻¹ and the “rhCD30 Binding (RU)” value was found to be 106 RU.

For the molecule B9, the equilibrium dissociation constant (Kd) is 31 nM, the koff turned out to be 0.0061 s⁻¹, the kon amounted to 200000 M⁻¹ s⁻¹ and the “rhCD30 Binding (RU)” value amounted to 69.8 RU.

As for B10, the equilibrium dissociation constant (Kd) amounted to 130 nM, the koff amounted to 0.0069 s⁻¹, the kon worked out at 56000 M⁻¹ s⁻¹ and the “rhCD30 Binding (RU)” value was found to be 284 RU.

Another test addresses T1, CD30 on CD30-expressing tumor cell …. Briefly: cell-based or functional assay. The source holds these as a separate data set.
Consider B1, for which the “% MJ cell lysis E:T = 0.5:1 (LDH assay, CAR T cells)” value was 58.4%.

The target of a further test is T3, human CD30 CRD6 (E282-K379) Fc fusion protein with human IgG1 Fc fragment at the C terminus (human).
T3 construct: also called CRD6 construct
T3 sequence (chain, as listed by the source limits assumed): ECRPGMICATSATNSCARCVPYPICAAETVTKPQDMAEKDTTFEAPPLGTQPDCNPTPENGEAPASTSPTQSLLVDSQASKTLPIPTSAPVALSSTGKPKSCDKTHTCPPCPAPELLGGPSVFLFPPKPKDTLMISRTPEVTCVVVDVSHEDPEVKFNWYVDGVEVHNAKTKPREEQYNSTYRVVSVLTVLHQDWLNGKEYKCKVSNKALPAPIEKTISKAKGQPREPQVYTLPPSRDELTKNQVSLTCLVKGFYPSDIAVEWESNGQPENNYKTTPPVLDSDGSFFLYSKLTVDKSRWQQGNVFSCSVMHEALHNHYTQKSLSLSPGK
The test is described as follows: ELISA on the CD30 fragment CRD6, absorbance OD 450 nm; sdAb concentration not given. On the technique in general: An ELISA detects its analyte on a solid surface through an enzyme-linked reagent.
With B5, the binding result was “binds”.

On to B6, for which the binding result was “binds”.

With B7, the binding result is on record as “binds”.

In the case of B8, the binding result is “binds”.

In the case of B9, the binding result is on record as “binds”.

Turning to B10, the binding result is “binds”.

The next test concerns the target T4, rhesus CD30 ECD (rhesus, UniProt P28908 19-379 (human entry)).
T4 construct: Produced in house; also called recombinant rhesus CD30; rhesus CD30 protein
T4 chain: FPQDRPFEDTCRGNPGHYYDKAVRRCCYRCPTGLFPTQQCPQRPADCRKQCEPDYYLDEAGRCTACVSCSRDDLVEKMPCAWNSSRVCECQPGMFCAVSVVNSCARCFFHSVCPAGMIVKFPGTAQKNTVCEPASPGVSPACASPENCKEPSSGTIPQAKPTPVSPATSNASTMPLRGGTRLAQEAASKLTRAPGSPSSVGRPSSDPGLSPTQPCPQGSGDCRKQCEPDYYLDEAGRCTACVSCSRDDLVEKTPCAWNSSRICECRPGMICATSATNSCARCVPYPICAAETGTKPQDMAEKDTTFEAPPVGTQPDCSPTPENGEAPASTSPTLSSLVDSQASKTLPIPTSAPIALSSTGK
The test is described as follows: ELISA on rhesus CD30 ECD protein; member of the group by paragraph 437.
For the molecule B5, the binding result was “binds”.

Regarding B6, the binding result is listed as “binds”.

As for B7, the binding result is “binds”.

In the case of B8, the binding result was “binds”.

As for B9, the binding result is “binds”.

In the case of B10, the binding result is “binds”.

Broadly, the Kd is the free concentration of one partner at which half of the binding sites on the other are occupied at equilibrium, for simple one-to-one binding. The koff is the rate constant with which the complex falls apart. As usually defined, the kon is a measure of how fast the partners come together.

Source of the values: US20220144960A1 (NANJING LEGEND BIOTECH, published 2022).
